Data on 1 substance can be found in article PMC3558457.

This assay has as its target IL-4 receptor α (IL-4Rα) (UniProt P24394).
Chain of UniProt P24394 (P24394 26-825): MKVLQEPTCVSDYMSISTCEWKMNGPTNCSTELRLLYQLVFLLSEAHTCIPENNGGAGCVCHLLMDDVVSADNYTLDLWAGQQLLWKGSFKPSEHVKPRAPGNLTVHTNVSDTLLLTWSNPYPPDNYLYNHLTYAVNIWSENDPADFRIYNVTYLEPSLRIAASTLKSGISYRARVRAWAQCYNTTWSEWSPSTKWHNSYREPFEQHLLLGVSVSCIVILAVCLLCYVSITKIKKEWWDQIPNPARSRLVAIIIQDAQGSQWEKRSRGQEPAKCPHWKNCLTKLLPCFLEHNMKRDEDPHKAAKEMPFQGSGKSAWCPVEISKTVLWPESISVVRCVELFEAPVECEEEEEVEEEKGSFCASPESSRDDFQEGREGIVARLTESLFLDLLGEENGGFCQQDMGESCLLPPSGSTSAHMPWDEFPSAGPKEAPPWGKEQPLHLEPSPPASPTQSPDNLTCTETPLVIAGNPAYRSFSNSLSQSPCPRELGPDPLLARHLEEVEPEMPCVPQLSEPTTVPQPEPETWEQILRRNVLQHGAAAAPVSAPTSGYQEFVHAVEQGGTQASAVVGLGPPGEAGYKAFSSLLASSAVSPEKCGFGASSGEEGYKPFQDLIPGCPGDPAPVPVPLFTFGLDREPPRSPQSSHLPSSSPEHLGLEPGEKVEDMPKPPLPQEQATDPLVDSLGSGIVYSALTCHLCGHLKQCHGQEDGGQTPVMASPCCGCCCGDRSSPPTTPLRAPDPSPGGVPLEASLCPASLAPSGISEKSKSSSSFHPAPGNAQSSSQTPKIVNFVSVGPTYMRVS

Substance “Wildtype human IL-4 (from UniProt P05112 25-153) (ligand)” displayed a TF-1 cell proliferation, dose dependency for wild-type human IL-4 (EC50) of 0.01 to 0.02 nM.
